From patent US10765616B2, “Oral formulation of polyglucosamine derivatives in combination with a non-fermentable sugar” (SYNEDGEN, INC., priority 2013, dated 2020)

What was measured:
S. mutans biofilms [1] = experiment: Comparative biofilm reduction study of oral rinses and active ingredients (MBEC pegs); format: cell-based, Streptococcus mutans; settings: 72 h S. mutans biofilms, treated 2 minutes twice (6-hour interval), vs water control, active ingredients at the concentration printed in the row or sentence
Description: Biofilms of S. mutans were grown on hydroxyapatite-coated pegs according to MBEC Assay™ methods for 72 hours, and then treated with the oral rinses or a water control. The corresponding active ingredients were also evaluated. The biofilms were exposed for 2-minutes, twice in a 6-hour interval to evaluate biofilm removal. Following treatment, biofilms were rinsed, fixed, and stained with 0.4% Crystal Violet, and remaining biofilm was quantitated via CFU or OD595 (Beenken and Smeltzer, 2003). Biofilms were analyzed in triplicate in at least 3 independent assays. Ratios were averaged from all assays and the percent biofilm reduced and standard error compared to water control is shown.

S. mutans biofilms [2] = experiment: MBEC peg biofilm biomass reduction assay of active ingredients (twice daily, OD595); format: cell-based, Streptococcus mutans; settings: 2 minutes, 8-hour interval, 32 μg/mL PAAG, 1.5% hydrogen peroxide, alcohol, lactoferrin, chlorhexidine
Description: The S. mutans biofilms were grown according to MBEC™ for High-throughput Screening methods (Innovotech) on a hydroxyapatite-coated peg lid placed in trough containing BHI media supplemented with 1% sucrose rocking for 72 hours. The pegs were treated twice daily with PAAG (30% functionalized, 86 kD) active ingredients (FIG. 9) at 8-hour intervals for 2-minutes. The biofilms were rinsed in PBS, and the pegs were removed and placed into 200 μl 95% ethanol each for 2 minutes to fix the biofilms. The MBEC-HTP biofilms were stained with 150 μl of 3% Crystal Violet dye each for 2 minutes, and rinsed five times with PBS. It was noted that chlorhexidine appears to “fix” the biofilm to the pegs. The bacteria may or may not be viable because OD measured biofilm biomass, not viable CFUs. The stained and rinsed MBEC-HTP biofilms were then placed in 150 μL ethanol for 1-minute to remove the dye/biofilm. Then 100 μL of the ethanol and dyed biofilm suspension was placed into a 96-well plate and the OD595 was measured to quantify the remaining stained biofilm biomass.

A431 epithelial cells = test system: A431 epithelial cells
Description: Human epithelial cell monolayers of A431 (ATCC CRL-1555) were seeded in tissue culture treated 96-well plates at a density of 2×10^4 cells/well in DMEM media supplemented with 10% FBS, 1% Penicillin-Streptomycin, and 1% Amphotericin B. Seeded cells were incubated at 37° C. with 5% CO2 for 48 hours. The media was removed and replaced with serum-free, antimicrobial-free media and rinsed one time for 30 seconds with PAAG Oral Formulation H, other oral products (Biotene, Corsodyl, Peroxyl, or Listerine), 32 μg/mL PAAG (30% functionalized, 86 kDa) and other active ingredients (0.029% lactoferrin, 0.2% chlorhexidine gluconate, 1.5% hydrogen peroxide, or 20% alcohol). Epithelial cell viability was determined by ATPLite Luminescence ATP Detection Assay System (PerkinElmer). Testing was done in duplicate.
Epithelial cell viability was compared between PAAG and other oral active ingredients and oral rinse products. Human epithelial cell monolayers were rinsed once for 30 seconds with each treatment. Following treatment, the epithelial cells were evaluated with ATP LITE Luminecence assay that measured viability via ATP. The data was normalized to untreated cells to compare percent survival (FIG. 4). […] Epithelial cell viability was determined by ATPLite Luminescence ATP Detection Assay System (Perkin Elmer) and compared to media rinsed cells.

B1: lactoferrin (protein, UniProt P02788 20-710, looked up)
Lactotransferrin: GRRRSVQWCAVSQPEATKCFQWQRNMRKVRGPPVSCIKRDSPIQCIQAIAENRADAVTLDGGFIYEAGLAPYKLRPVAAEVYGTERQPRTHYYAVAVVKKGGSFQLNELQGLKSCHTGLRRTAGWNVPIGTLRPFLNWTGPPEPIEAAVARFFSASCVPGADKGQFPNLCRLCAGTGENKCAFSSQEPYFSYSGAFKCLRDGAGDVAFIRESTVFEDLSDEAERDEYELLCPDNTRKPVDKFKDCHLARVPSHAVVARSVNGKEDAIWNLLRQAQEKFGKDKSPKFQLFGSPSGQKDLLFKDSAIGFSRVPPRIDSGLYLGSGYFTAIQNLRKSEEEVAARRARVVWCAVGEQELRKCNQWSGLSEGSVTCSSASTTEDCIALVLKGEADAMSLDGGYVYTAGKCGLVPVLAENYKSQQSSDPDPNCVDRPVEGYLAVAVVRRSDTSLTWNSVKGKKSCHTAVDRTAGWNIPMGLLFNQTGSCKFDEYFSQSCAPGSDPRSNLCALCIGDEQGENKCVPNSNERYYGYTGAFRCLAENAGDVAFVKDVTVLQNTDGNNNEAWAKDLKLADFALLCLDGKRKPVTEARSCHLAMAPNHAVVSRMDKVERLKQVLLHQQAKFGRNGSDCPDKFCLFQSETKNLLFNDNTECLARLHGKTTYEKYLGPQYVAGITNLKKCSTSPLLEACEFLRK
S. mutans biofilms [1]
  Percent (%) Biomass Reduced: 25.6 ± 4.3%
S. mutans biofilms [1]; listed as lactoferrin
  Percent (%) Biomass Reduced: 25.6±4.3%
S. mutans biofilms [2]
  reduction in S. mutans biofilm biomass compared to water control: did not significantly reduce
A431 epithelial cells
  epithelial cell viability: maintain epithelial cell viability
